From the RNAGym collection of RNA variant scans (doi:10.1021/acssynbio.7b00057)

B1: Pistol ribozyme (parent)
chain: GGGUCGUUGUUCCAUAAUCGCGUGGAUAUGGCACGCAAGUUUCUACCGGGCACCGUAAAUGUCCGACUGGAGCCGUUCGGGCGGCUAUAAACAGACCUCAGGCCCGAAGCGUGGCGGCACCUGCCGCCGGUGGUAAAAAAGAUCGGAAGAGCACACGUCU

Variants of: B1
Test: aptazyme ON/OFF ratio, guanine; higher = stronger switching; co-transcriptional cleavage with and without guanine

In order of falling “aptazyme ON/OFF ratio” value:
1. U7C U8A G9A U11G C12U  1.37
2. U7C U8A G9A U11A C12U C13A  1.32
3. U7C U8A G9A U10C U11G  1.32
4. U7C U8A G9A U10C U11G C12U C13G  1.27
5. U7C U8A G9A U11A C12U C13U  1.27
6. U7C U8A G9A U10C U11G C12U C13U  1.26
7. U7C U8A G9C U10A C12G  1.26
8. U7C U8A G9C U10A C12A C13A  1.26
9. U7C U8A G9A U10A U11G C13U  1.25
10. U7C U8A G9A U10C U11G C12G C13A  1.24
11. U7C U8A G9A U10G U11A C12G C13U  1.24
12. U7C U8A G9C U10C C13U  1.23
13. U7C U8A G9A U10G U11G C12A C13U  1.23
14. U7C U8A G9A U10C U11A  1.23
15. U7C U8A G9C U10A C12U  1.22
16. U7C U8A G9C U10A C12A C13U  1.21
17. U7C U8A G9C U10A C12A  1.2
18. U7C U8A G9C U10A U11A C13A  1.2
19. U7C U8A G9C U10A U11A C13U  1.19
20. U7C U8A G9A U10G U11G C12A C13A  1.19
21. U7C U8A G9A U11A C12U C13G  1.18
22. U7C U8A G9A U10C U11G C12U C13A  1.17
23. U7C U8A G9A U10C U11A C12U C13A  1.17
24. U7C U8A G9A U10A U11G C13A  1.16
25. U7C U8A G9C C12A C13A  1.15
26. U7C U8A G9C C12A C13U  1.15
27. U7C U8A G9C U10A U11A C13G  1.15
28. U7C U8A G9A U10C U11A C12U C13G  1.15
29. U7C U8A G9A U10G U11G C12A C13G  1.14
30. U7C U8A G9A U10A U11G C12U  1.14
31. U7C U8A G9C C12G  1.13
32. U7C U8A G9A U10G U11A C12U C13G  1.12
33. U7C U8A G9C U10C U11A C12G C13U  1.12
34. U7C U8A G9A U10C U11G C12G C13G  1.12
35. U7C U8A G9A U11G C12G  1.12
36. U7C U8A G9A U10A U11G C12G  1.12
37. U7C U8A G9A U10G U11A C12U C13A  1.11
38. U7C U8A G9C U10C U11G C12A  1.11
39. U7C U8A G9A U10C U11A C12U C13U  1.11
40. U7C U8A G9A U10C U11G C12G C13U  1.11
41. U7C U8A G9C U10C U11A C12A C13G  1.11
42. U7C U8A G9C U10C U11A C12G C13A  1.1
43. U7C U8A G9C U10C U11A C12G C13G  1.1
44. U7C U8A G9C U10C U11G C12G  1.09
45. U7C U8A G9A U10G U11A C12G C13G  1.07
46. U7C U8A G9A U11G C12A  1.07
47. U7C U8A G9C U10C U11A C12A C13A  1.07
48. U7C U8A G9C U10C U11C C12A  1.06
49. U7C U8A G9A U10G U11A C12U C13U  1.06
50. U7C U8A G9A U10G U11A C12G C13A  1.06
51. U7C U8A G9C U10A U11C C13A  1.06
52. U7C U8A G9C C12A C13G  1.05
53. U7C U8A G9A U10A U11C C13U  1.05
54. U7C U8A G9C U10C U11A C12U C13G  1.05
55. U7C U8A G9C U10C C13G  1.05
56. U7C U8A G9A U10G U11C C13G  1.05
57. U7C U8A G9A U10G U11C C13A  1.05
58. U7C U8A G9A U10A U11G C12A  1.05
59. U7C U8A G9C C13U  1.05
60. U7C U8A G9C U10A U11C C13G  1.05
61. U7C U8A G9C U10C U11C C12G  1.04
62. U7C U8A G9C U10C U11A C12U C13U  1.04
63. U7C U8A G9C U10C U11A C12U C13A  1.04
64. U7C U8A G9A U10C U11C C12U C13G  1.04
65. U7C U8A G9A U10C U11C C12U C13U  1.04
66. U7C U8A G9C C13G  1.04
67. U7C U8A G9C U10C U11A C12A C13U  1.04
68. U7C U8A G9A U10G U11G  1.04
69. U7C U8A G9A U10A U11C C13G  1.03
70. U7C U8A G9A U10A U11C C13A  1.03
71. U7C U8A G9A U10C U11C C12U C13A  1.03
72. U7C U8A G9C U10C C13A  1.03
73. U7C U8A G9C U10C U11C C12U C13A  1.03
74. U7C U8A G9C U10C U11C C12U C13G  1.03
75. U7C U8A G9A U10G U11C  1.03
76. U7C U8A G9C U10C U11C C12U  1.02
77. U7C U8A G9C U10C U11C C12U C13U  1.02
78. U7C U8A G9C C13A  1.02
79. U7C U8A G9C U10A U11C C13U  1.02
80. U7C U8A G9A U10A U11G C13G  1.02
81. U7C U8A G9A U10C U11C  1.02
82. U7C U8A G9A U10G U11A  1.01
83. U7C U8A G9A U10G U11C C13U  1
